Data taken from patent US20150284450A1, “COMBINATION THERAPIES USING ANTI-PSEUDOMONAS PSL AND PCRV BINDING MOLECULES” (priority 2012, published 2015).

Key:
[1] = tested on: P. aeruginosa 6077 (exoU+); assay: Rabbit red blood cell lysis inhibition assay with strain 6077; assay type: cell-based, Pseudomonas aeruginosa; conditions: FIG. 12F
Description: Percent inhibition of cytotoxicity analysis was analysed for the parental V2L2 mAb, mAb166 (positive control) and R347 (negative control), where the antibodies were administered to cultured broncho-epithelial cell line A549 combined with log-phase P. aeruginosa strain 6077 (exoU+) at a MOI of approximately 10. A549 lysis was assayed by measuring released lactate dehydrogenase (LDH) activity and lysis in the presence of mAbs was compared to wells without mAb to determine percent inhibition. The V2L2 mAb, mAb166 (positive control) and R347 (negative control) were evaluated for their ability to prevent lysis of RBCs, where the antibodies were mixed with log-phase P. aeruginosa 6077 (exoU^+) and washed rabbit red blood cells (RBCs) and incubated for 2 hours at 37°. Intact RBCs were pelleted and the extent of lysis determined by measuring the OD405 of the cell-free supernatant. Lysis in the presence of anti-PcrV mAbs was compared to wells without mAb to determine percent inhibition.

[2] = tested on: P. aeruginosa PA103A (O11); assay: Acute pneumonia model in mice, strain PA103A; assay type: in vivo, Pseudomonas aeruginosa; conditions: V2L2 0.04-5 mg/kg, FIG. 13I
Description: (§1) Antibodies or PBS were administered 24 hours before infection in each model. P. aeruginosa acute pneumonia, keratitis, and thermal injury infection models were performed as described (DiGiandomenico, A., et al., Proc Natl Acad Sci USA 104, 4624-4629 (2007)), with modifications. In the acute pneumonia model, BALB/c mice (The Jackson Laboratory) were infected with P. aeruginosa strains suspended in a 0.05 ml inoculum. In the thermal injury model, CF-1 mice (Charles River) received a 10% total body surface area burn with a metal brand heated to 92° C. for 10 seconds. Animals were infected subcutaneously with P. aeruginosa strain 6077 at the indicated dose. For organ burden experiments, acute pneumonia was induced in mice followed by harvesting of lungs, spleens, and kidneys 24 hours post-infection for determination of CFU.
The in vivo effect of administration of an anti-PcrV antibodies was studied in mice using an acute pneumonia model. Groups of mice were treated with either increasing concentrations of the V2L2 antibody, a positive control anti-PcrV antibody (mAb166), or a negative control (R347), as shown in FIG. 13 (A-B). Groups of mice were also treated with either increasing concentrations of the V2L2 antibody, the PcrV antibody PcrV-02, or a negative control (R347), as shown in FIG. 13 (C-D). […]

[3] = tested on: P. aeruginosa 6294 (O6); assay: Acute pneumonia model in mice, strain 6294; assay type: in vivo, Pseudomonas aeruginosa; conditions: for Overall Impression, lung histology: BALB/c mice
Description: as §1

[4] = tested on: P. aeruginosa 6206 (O11-ExoU+); assay: Acute pneumonia model in mice, strain 6206; assay type: in vivo, Pseudomonas aeruginosa
Description: as §1

[5] = tested on: P. aeruginosa 6077 (O11, cytotoxic); assay: Acute pneumonia model in mice, strain 6077; assay type: in vivo, Pseudomonas aeruginosa; conditions: IP 24 h prior to intranasal 6077 (1×10^6 CFU/animal); FIG. 13E-G
Description: as §1

[6] = 1.33×10^7 CFU 6294, 0.2 mg/kg (combination 0.1 mg/kg ea), Table 6A
[7] = 1.7×10^7 CFU 6294, 0.2 mg/kg (combination 0.1 mg/kg ea), Table 6B
[8] = 5.25×10^5 cfu 6206, single antibody: R347 2.1 mg/kg, V2L2 0.1 mg/kg, WapR-004 0.5 mg/kg, Table 5
[9] = 9.25×10^5 CFU 6206, 0.2 mg/kg (combination 0.1 mg/kg ea), Table 7
[10] = V2L2 0.07-5 mg/kg, intranasal 6206, FIG. 14A-B

B1: V2L2: anti-PcrV monoclonal antibody, epitope class 4; VH SEQ ID NO: 216, VL SEQ ID NO: 217 (antibody, V domains shown)
VH: EMQLLESGGGLVQPGGSLRLSCAASGFTFSSYAMNWVRQAPGEGLEWVSAITISGITAYYTDSVKGRFTISRDNSKNTLYLQMNSLRAGDTAVYYCAKEEFLPGTHYYYGMDVWGQGTTVTVSS
VL: AIQMTQSPSSLSASVGDRVTITCRASQGIRNDLGWYQQKPGKAPKLVIYSASTLQSGVPSRFSGSGSGTDFTLSISSLQPDDFATYYCLQDYNYPWTFGQGTKVEIK
modifications: V2L2 VH; V2L2 VL
[1]
  potency in prevention of RBC lysis, V2L2 vs. 29D2: more potent in prevention of RBC lysis than the 29D2
[2]
  protection against additional strains: protects against additional Pseudomonas strains
[3]; 1 mg/kg, strain 6294, FIG. 13B
  protection compared to mAb166 at similar doses: significantly more potent protection than mAb166
[3]; [6]
  Bacteria: Neg-1+
  Hemorrhage, extent in words: Extensive
  Inflammatory Infiltrate: PMN 3+
  Involved Lung Surface Area: 57%
  Overall Impression, lung histology: Broncho interstitial pneumonia
[3]; [7]
  Bacteria: Neg
  Inflammatory Infiltrate: PMN 2+
  Overall Impression, lung histology: Broncho interstitial pneumonia
[3]; 1.7×10^7 CFU 6294, 0.2 mg/kg, Table 6B
  Involved Lung Surface Area: 30%
[3]; 6294, V2L2 0.04-5 mg/kg, FIG. 13I
  protection against additional strains: protects against additional Pseudomonas strains
[3]; increasing doses of V2L2 24 h before infection, out to 168 hours post-infection, FIG. 13
  effect on survival: dose-dependent effect on improved survival
[4]; 1 mg/kg, lung, FIG. 14B
  reduction in organ CFU compared to mAb166 at similar doses: significantly greater reduction in organ CFU than mAb166
[4]; 5.25×10^5 cfu 6206, V2L2 0.1 mg/kg, W4-RAD 0.5 mg/kg, combination, 24 h post infection, FIG. 15
  organ burden / tissue clearance (lung, spleen, kidney CFU): effective in lowering organ burden
[4]; [8]
  Inflammatory Infiltrate: PMN 3+
  Involved Lung Surface Area: 55%
  Overall Impression, lung histology: Broncho interstitial pneumonia
[4]; [9]
  Inflammatory Infiltrate: PMN 2-3+
  Involved Lung Surface Area: 40%
[4]; 6206, Bs3-V2L2 0.28 mg/kg, V2L2 0.2 mg/kg 24 h before infection, monitored 120 hours, FIG. 21A
  survival, in words: survived, along with those which received the V2L2 control
[4]; BALB/c mice, 9.25×10^5 CFU 6206, 0.2 mg/kg (combination 0.1 mg/kg ea), Table 7
  Overall Impression, lung histology: Broncho interstitial pneumonia
[4]; [10]
  clearance in the kidney: little effect on clearance in the kidney
  dissemination to lung and spleen: greatly reduced dissemination to both the lung and spleen in a dose-dependent manner
[5]
  protection in vivo (survival): provides protection in vivo
